According to PMC5449596:

B1: Arbitrary control RNA (ssRNA)
RNA: GGGAAAAGCGAAUCAUACACAAGAAAUUUGGACUUUCCGCCCUUCUUGGCCUUUAUGAGGAUCUCUCUGAUUUUUCUUGCGUCGAGUUUUCCGGGGGCAUAAGGUAUUUAAUUCCAUA
B2: 88.1 (6/5AL) aptamer (structured_RNA)
RNA: GGGAAAAGCGAAUCAUACACAAGACAUUGACCAAAAGGGUCGAUAGCGUCGUGUAGAUUGCACCCAUGACUGAGCUACUGCCAAAUCCACCCACGGGCAUAAGGUAUUUAAUUCCAUA

Tests used:
[1] = target: T1, HIV-1 reverse transcriptase, subtype B (HIV-1 subtype B strain HXB2, UniProt P04585;P04585 588-1147;588-1027); test: filter binding
[2] = target: T1, HIV-1 reverse transcriptase, subtype B; test: filter binding; remark: listed apart in the source

Binder	binding result [1]	Kd [2]
B1	no binding	–
B2	–	81 nM
